Data on two molecules can be found in patent EP4722231A1 (Shanxi Jinbo Bio-Pharmaceutical Co., Ltd., dated 2025).

Holding throughout (experiment): cell-based or functional assay
Experiment [1] has as its target SARS-CoV-2 EG.5 S protein (SARS-CoV-2 (EG.5 variant)).
The target in experiment [2] is SARS-CoV-2 Omicron BA.2 S protein (SARS-CoV-2 (BA.2 variant)).
Experiment [3] deals with SARS-CoV-2 XBB.1.5 S protein (SARS-CoV-2 (XBB.1.5 variant)).
The target of experiment [4] is SARS-CoV-2 BA.2.75 S protein (SARS-CoV-2 (BA.2.75 variant)).
Experiment [5] deals with SARS-CoV-2 BA.2.86 S protein (SARS-CoV-2 (BA.2.86 variant)).

In the case of Ac-SLDQINVTFLDLEYEMKKLEEAIKKLEESYIDLKEL-NH2 [chemically synthesized polypeptide EK1], the “Inhibitory activity, IC50 (nM), pseudovirus infection of Caco2 cells (luciferase)” value in experiment [1] came out at 401 nM; in experiment [2], 228 nM; in experiment [3] it was 291 nM; in experiment [4], 438 nM; in experiment [5], 392 nM.
The like results for SLDQINVTFLDLEYEMKKLEEAIKKLEESYIDLKEL [prokaryote-expressed polypeptide reEK1 (recombinant polypeptide HCoV-EK1, TEKB)] were, in that order, 331 nM, 354 nM, 137 nM, 420 nM and 298 nM.
